The record followed here is the supplement of paper PMC5998384.

Data set [1] has as its system HeLa Kyoto. Put plainly: thermal stability score vs G1/S (z-score of summed log2 fold changes over temperatures); higher = more thermally stable than in G1/S.
Data set [2] concerns HeLa Kyoto. Put plainly: melting temperature (median over replicates), in situ; higher = more thermally stable.
Data set [3] relates to HeLa Kyoto. In words: solubility change mitosis vs G1/S (difference of NP-40 vs SDS log2 ratios) (log2 ratio difference); higher = more soluble in mitosis.
Data set [4] deals with HeLa Kyoto. In words: solubility in G1/S (NP-40 vs SDS abundance) (log2 ratio); higher = more soluble. The settings on record: cell cycle stage: G1/S.
Where [5] appears, read: cell cycle stage: early G1 (4.5 h after nocodazole release).
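Wherever melting temperature (median over replicates), in situ is given: HeLa Kyoto cells synchronized by double thymidine or nocodazole block, proteins quantified by TMT10plex mass spectrometry, three independent biological replicates.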
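Wherever solubility change mitosis vs G1/S (difference of NP-40 vs SDS log2 ratios) is given: synchronized HeLa Kyoto cells (double thymidine block for G1/S, nocodazole release for mitosis), protein amounts in NP-40 versus SDS lysates quantified by mass spectrometry, three biological replicates.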
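Wherever solubility in G1/S (NP-40 vs SDS abundance) is given: HeLa Kyoto cells arrested at G1/S by double thymidine block, proteins quantified by TMT10plex mass spectrometry in mild NP-40 versus SDS extracts, three biological replicates.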
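Wherever thermal stability score vs G1/S (z-score of summed log2 fold changes over temperatures) is given: synchronized HeLa Kyoto cells, proteins quantified by TMT10plex mass spectrometry, three biological replicates, mitosis taken 0.5 h after nocodazole release, G1/S directly after double thymidine block.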

Consider “MSDSWVPNSASGQDPGGRRRAWAELLAGRVKREKYNPERAQKLKESAVRLLRSHQDLNALLLEVEGPLCKKLSLSKVIDCDSSEAYANHSSSFIGSALQDQASRLGVPVGILSAGMVASSVGQICTAPAETSHPVLLTVEQRKKLSSLLEFAQYLLAHSMFSRLSFCQELWKIQSSLLLEAVWHLHVQGIVSLQELLESHPDMHAVGSWLFRNLCCLCEQMEASCQHADVARAMLSDFVQMFVLRGFQKNSDLRRTVEPEKMPQVTVDVLQRMLIFALDALAAGVQEESSTHKIVRCWFGVFSGHTLGSVISTDPLKRFFSHTLTQILTHSPVLKASDAVQMQREWSFARTHPLLTSLYRRLFVMLSAEELVGHLQEVLETQEVHWQRVLSFVSALVVCFPEAQQLLEDWVARLMAQAFESCQLDSMVTAFLVVRQAALEGPSAFLSYADWFKASFGSTRGYHGCSKKALVFLFTFLSELVPFESPRYLQVHILHPPLVPGKYRSLLTDYISLAKTRLADLKVSIENMGLYEDLSSAGDITEPHSQALQDVEKAIMVFEHTGNIPVTVMEASIFRRPYYVSHFLPALLTPRVLPKVPDSRVAFIESLKRADKIPPSLYSTYCQACSAAEEKPEDAALGVRAEPNSAEEPLGQLTAALGELRASMTDPSQRDVISAQVAVISERLRAVLGHNEDDSSVEISKIQLSINTPRLEPREHMAVDLLLTSFCQNLMAASSVAPPERQGPWAALFVRTMCGRVLPAVLTRLCQLLRHQGPSLSAPHVLGLAALAVHLGESRSALPEVDVGPPAPGAGLPVPALFDSLLTCRTRDSLFFCLKFCTAAISYSLCKFSSQSRDTLCSCLSPGLIKKFQFLMFRLFSEARQPLSEEDVASLSWRPLHLPSADWQRAALSLWTHRTFREVLKEEDVHLTYQDWLHLELEIQPEADALSDTERQDFHQWAIHEHFLPESSASGGCDGDLQAACTILVNALMDFHQSSRSYDHSENSDLVFGGRTGNEDIISRLQEMVADLELQQDLIVPLGHTPSQEHFLFEIFRRRLQALTSGWSVAASLQRQRELLMYKRILLRLPSSVLCGSSFQAEQPITARCEQFFHLVNSEMRNFCSHGGALTQDITAHFFRGLLNACLRSRDPSLMVDFILAKCQTKCPLILTSALVWWPSLEPVLLCRWRRHCQSPLPRELQKLQEGRQFASDFLSPEAASPAPNPDWLSAAALHFAIQQVREENIRKQLKKLDCEREELLVFLFFFSLMGLLSSHLTSNSTTDLPKAFHVCAAILECLEKRKISWLALFQLTESDLRLGRLLLRVAPDQHTRLLPFAFYSLLSYFHEDAAIREEAFLHVAVDMYLKLVQLFVAGDTSTVSPPAGRSLELKGQGNPVELITKARLFLLQLIPRCPKKSFSHVAELLADRGDCDPEVSAALQSRQQAAPDADLSQEPHLF [FANCA]”, for which the thermal stability score came to 0.523 with HeLa Kyoto [1] (setting [5]) and 1.07 with HeLa Kyoto [1] (cell cycle stage: mitosis). In addition, the melting temperature in the data set with HeLa Kyoto [2] (cell cycle stage: G1/S) stood at 47.9 °C; in the data set on HeLa Kyoto [2] (cell cycle stage: mitosis), 48.3 °C. For the same sequence, the “solubility change mitosis (log2)” value with HeLa Kyoto [3] amounted to 0.00288. Also, in the data set on HeLa Kyoto [4], the “solubility in G1/S (log2)” value is -0.182.

“MGGCTVKPQLLLLALVLHPWNPCLGADSEKPSSIPTDKLLVITVATKESDGFHRFMQSAKYFNYTVKVLGQGEEWRGGDGINSIGGGQKVRLMKEVMEHYADQDDLVVMFTECFDVIFAGGPEEVLKKFQKANHKVVFAADGILWPDKRLADKYPVVHIGKRYLNSGGFIGYAPYVNRIVQQWNLQDNDDDQLFYTKVYIDPLKREAINITLDHKCKIFQTLNGAVDEVVLKFENGKARAKNTFYETLPVAINGNGPTKILLNYFGNYVPNSWTQDNGCTLCEFDTVDLSAVDVHPNVSIGVFIEQPTPFLPRFLDILLTLDYPKEALKLFIHNKEVYHEKDIKVFFDKAKHEIKTIKIVGPEENLSQAEARNMGMDFCRQDEKCDYYFSVDADVVLTNPRTLKILIEQNRKIIAPLVTRHGKLWSNFWGALSPDGYYARSEDYVDIVQGNRVGVWNVPYMANVYLIKGKTLRSEMNERNYFVRDKLDPDMALCRNAREMGVFMYISNRHEFGRLLSTANYNTSHYNNDLWQIFENPVDWKEKYINRDYSKIFTENIVEQPCPDVFWFPIFSEKACDELVEEMEHYGKWSGGKHHDSRISGGYENVPTDDIHMKQVDLENVWLHFIREFIAPVTLKVFAGYYTKGFALLNFVVKYSPERQRSLRPHHDASTFTINIALNNVGEDFQGGGCKFLRYNCSIESPRKGWSFMHPGRLTHLHEGLPVKNGTRYIAVSFIDP [PLOD2]”: the thermal stability score came out at 3.26 in the data set on HeLa Kyoto [1] (setting [5]) and 4.23 with HeLa Kyoto [1] (cell cycle stage: mitosis). In addition, the melting temperature in the data set with HeLa Kyoto [2] (cell cycle stage: G1/S) is 53.9 °C; in the data set with HeLa Kyoto [2] (cell cycle stage: mitosis) it was 54.6 °C. Also, the “solubility change mitosis (log2)” value with HeLa Kyoto [3] was -0.123. In addition, the “solubility in G1/S (log2)” value in the data set with HeLa Kyoto [4] was 0.13.

“MRPLLLLALLGWLLLAEAKGDAKPEDNLLVLTVATKETEGFRRFKRSAQFFNYKIQALGLGEDWNVEKGTSAGGGQKVRLLKKALEKHADKEDLVILFADSYDVLFASGPRELLKKFRQARSQVVFSAEELIYPDRRLETKYPVVSDGKRFLGSGGFIGYAPNLSKLVAEWEGQDSDSDQLFYTKIFLDPEKREQINITLDHRCRIFQNLDGALDEVVLKFEMGHVRARNLAYDTLPVLIHGNGPTKLQLNYLGNYIPRFWTFETGCTVCDEGLRSLKGIGDEALPTVLVGVFIEQPTPFVSLFFQRLLRLHYPQKHMRLFIHNHEQHHKAQVEEFLAQHGSEYQSVKLVGPEVRMANADARNMGADLCRQDRSCTYYFSVDADVALTEPNSLRLLIQQNKNVIAPLMTRHGRLWSNFWGALSADGYYARSEDYVDIVQGRRVGVWNVPYISNIYLIKGSALRGELQSSDLFHHSKLDPDMAFCANIRQQDVFMFLTNRHTLGHLLSLDSYRTTHLHNDLWEVFSNPEDWKEKYIHQNYTKALAGKLVETPCPDVYWFPIFTEVACDELVEEMEHFGQWSLGNNKDNRIQGGYENVPTIDIHMNQIGFEREWHKFLLEYIAPMTEKLYPGYYTRAQFDLAFVVRYKPDEQPSLMPHHDASTFTINIALNRVGVDYEGGGCRFLRYNCSIRAPRKGWTLMHPGRLTHYHEGLPTTRGTRYIAVSFVDP [PLOD1]”: the thermal stability score in the data set with HeLa Kyoto [1] (setting [5]) turned out to be 3.69; in the data set with HeLa Kyoto [1] (cell cycle stage: mitosis) it was 3.91. Further, the values for the melting temperature in the data set on HeLa Kyoto [2] (cell cycle stage: G1/S) and in the data set on HeLa Kyoto [2] (cell cycle stage: mitosis) were 54.3 °C and 54.5 °C, respectively. Also, in the data set with HeLa Kyoto [3], the “solubility change mitosis (log2)” value was -0.0758. For the same sequence, in the data set on HeLa Kyoto [4], the “solubility in G1/S (log2)” value is -0.0992.

In the case of “MDEMATTQISKDELDELKEAFAKVDLNSNGFICDYELHELFKEANMPLPGYKVREIIQKLMLDGDRNKDGKISFDEFVYIFQEVKSSDIAKTFRKAINRKEGICALGGTSELSSEGTQHSYSEEEKYAFVNWINKALENDPDCRHVIPMNPNTDDLFKAVGDGIVLCKMINLSVPDTIDERAINKKKLTPFIIQENLNLALNSASAIGCHVVNIGAEDLRAGKPHLVLGLLWQIIKIGLFADIELSRNEALAALLRDGETLEELMKLSPEELLLRWANFHLENSGWQKINNFSADIKDSKAYFHLLNQIAPKGQKEGEPRIDINMSGFNETDDLKRAESMLQQADKLGCRQFVTPADVVSGNPKLNLAFVANLFNKYPALTKPENQDIDWTLLEGETREERTFRNWMNSLGVNPHVNHLYADLQDALVILQLYERIKVPVDWSKVNKPPYPKLGANMKKLENCNYAVELGKHPAKFSLVGIGGQDLNDGNQTLTLALVWQLMRRYTLNVLEDLGDGQKANDDIIVNWVNRTLSEAGKSTSIQSFKDKTISSSLAVVDLIDAIQPGCINYDLVKSGNLTEDDKHNNAKYAVSMARRIGARVYALPEDLVEVKPKMVMTVFACLMGRGMKRV [PLS3]”, the thermal stability score with HeLa Kyoto [1] (setting [5]) came out at 1.07; with HeLa Kyoto [1] (cell cycle stage: mitosis), 1.27. Besides, the melting temperature in the data set on HeLa Kyoto [2] (cell cycle stage: G1/S) came to 54.9 °C; in the data set with HeLa Kyoto [2] (cell cycle stage: mitosis) it was 54.5 °C. Further, the “solubility change mitosis (log2)” value in the data set with HeLa Kyoto [3] came out at 0.00363. Also, the “solubility in G1/S (log2)” value in the data set with HeLa Kyoto [4] is 0.439.

With “MMLGTEGGEGFVVKVRGLPWSCSADEVQRFFSDCKIQNGAQGIRFIYTREGRPSGEAFVELESEDEVKLALKKDRETMGHRYVEVFKSNNVEMDWVLKHTGPNSPDTANDGFVRLRGLPFGCSKEEIVQFFSGLEIVPNGITLPVDFQGRSTGEAFVQFASQEIAEKALKKHKERIGHRYIEIFKSSRAEVRTHYDPPRKLMAMQRPGPYDRPGAGRGYNSIGRGAGFERMRRGAYGGGYGGYDDYNGYNDGYGFGSDRFGRDLNYCFSGMSDHRYGDGGSTFQSTTGHCVHMRGLPYRATENDIYNFFSPLNPVRVHIEIGPDGRVTGEADVEFATHEDAVAAMSKDKANMQHRYVELFLNSTAGASGGAYEHRYVELFLNSTAGASGGAYGSQMMGGMGLSNQSSYGGPASQQLSGGYGGGYGGQSSMSGYDQVLQENSSDFQSNIA [HNRNPH1]”, the thermal stability score in the data set on HeLa Kyoto [1] (setting [5]) came out at 3.39; with HeLa Kyoto [1] (cell cycle stage: mitosis), 8.7. Also, the melting temperature in the data set on HeLa Kyoto [2] (cell cycle stage: G1/S) came to 47.5 °C; in the data set on HeLa Kyoto [2] (cell cycle stage: mitosis) it was 48.2 °C. Also, in the data set with HeLa Kyoto [3], the “solubility change mitosis (log2)” value was -0.00635. Also, the “solubility in G1/S (log2)” value in the data set on HeLa Kyoto [4] was 0.047.
